In general, Kd refers to the constant that tells how readily two partners part at equilibrium.

In test [1] the target is T1, Human neuropilin-2 (NP-2) (human, UniProt O60462 21-931).
T1 sequence: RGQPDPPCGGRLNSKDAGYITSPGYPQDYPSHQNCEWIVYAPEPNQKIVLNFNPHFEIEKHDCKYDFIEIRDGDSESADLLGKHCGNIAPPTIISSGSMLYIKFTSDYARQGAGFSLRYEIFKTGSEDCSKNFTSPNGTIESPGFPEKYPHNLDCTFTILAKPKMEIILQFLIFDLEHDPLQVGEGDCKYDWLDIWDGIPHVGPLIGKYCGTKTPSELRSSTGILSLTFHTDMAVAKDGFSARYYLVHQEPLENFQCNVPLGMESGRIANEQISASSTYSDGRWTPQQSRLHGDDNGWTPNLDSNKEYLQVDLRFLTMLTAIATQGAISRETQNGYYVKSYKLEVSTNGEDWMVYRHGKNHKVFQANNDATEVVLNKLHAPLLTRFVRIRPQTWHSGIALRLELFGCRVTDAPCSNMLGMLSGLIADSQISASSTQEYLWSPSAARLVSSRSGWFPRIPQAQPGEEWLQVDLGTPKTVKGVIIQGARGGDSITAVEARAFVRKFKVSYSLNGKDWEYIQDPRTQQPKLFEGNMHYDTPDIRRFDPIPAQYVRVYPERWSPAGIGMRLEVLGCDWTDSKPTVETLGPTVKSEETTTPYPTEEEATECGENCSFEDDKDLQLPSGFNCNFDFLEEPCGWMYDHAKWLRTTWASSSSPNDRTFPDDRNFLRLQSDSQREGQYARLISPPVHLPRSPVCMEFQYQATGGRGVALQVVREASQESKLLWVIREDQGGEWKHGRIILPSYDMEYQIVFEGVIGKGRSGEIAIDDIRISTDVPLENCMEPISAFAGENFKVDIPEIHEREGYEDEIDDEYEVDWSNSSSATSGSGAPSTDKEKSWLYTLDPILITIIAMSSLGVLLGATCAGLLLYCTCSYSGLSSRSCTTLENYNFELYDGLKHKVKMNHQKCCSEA
The test can be described thus: expression cloning: one of the seven single clones positive for ^125I-VEGF165 binding to transfected COS-7 cells.
Protocol: The E. coli were sub-divided into 50 separate pools and plated onto 50 LB ampicillin dishes, with each pool representing approximately 100 clones. DNA made from these pools was transfected into COS-7 cells which were screened for ¹²⁵I-VEGF₁₆₅ binding as described above. […] Each pool was plated onto separate LB ampicillin dishes and DNA was prepared from 96 individual colonies and screened in a 96-well two dimensional grid for ¹²⁵I-VEGF₁₆₅ binding to tranfected COS-7 cells as described above. […] The seven positive plasmid clones were amplified and their DNA was analyzed by restriction enzyme digestion. […] One clone from each group was submitted for automated DNA sequencing.
E. coli transformed with the plasmid library were divided into pools.

Test [2] concerns the target T2, Human VEGF165R/NP-1 (neuropilin-1) (human, UniProt O14786 22-923). The test can be described thus: cell-based or functional assay.
Test [3] has as its target T2, Human VEGF165R/NP-1 (neuropilin-1). Briefly: Scatchard analysis (LIGAND program) of ^125I-VEGF165 binding to PAE/NP-1 cells.
Protocol: Scatchard Analysis of VEGF₁₆₅ Binding to VEGF₁₆₅R/NP-1.7A. Increasing amounts of ¹²⁵I-VEGF₁₆₅ (0.1-50 ng/ml) were added to subconfluent cultures of PAE cells transfected with human VEGF₁₆₅R/NP-1 cDNA (PAE/NP-1 cells) in 48 well dishes. Non-specific binding was determined by competition with a 200-fold excess of unlabeled VEGF₁₆₅. After binding, the cells were washed, lysed and the cell-associated radioactivity was determined using a y counter.
The specific activity ranged from 40,000-100,000 cpm/ng protein. […] VEGF binding was quantitated by measuring the cell-associated radioactivity in a y-counter (Beckman, Gamma 5500). The counts represent the average of three wells. All experiments were repeated at least three times and similar results were obtained.
Test [4] deals with T3, Neuropilin-1 on Dunning rat prostate carcinoma AT3.1 cells (rat, UniProt Q9QWJ9 22-922).
T3 construct: whole, on cells; also called VEGF165R/NP-1 (AT3.1 cells)
The test can be described thus: ^125I-VEGF165 cross-linking to Dunning rat prostate carcinoma cells.

The target of test [5] is T2, Human VEGF165R/NP-1 (neuropilin-1). The test can be described thus: ^125I-VEGF121 binding and chemical cross-linking to PAE/NP-1 cells, SDS-PAGE, autoradiography. How it is done: FIG. 8. […] The binding was carried out in the presence of 1 μg/ml heparin. […] The cells were lysed and proteins were resolved by 6% SDS-PAGE. The polyacrylamide gel was dried and exposed to X-ray film.

B1: Human recombinant VEGF165 (ligand, UniProt P15692-4 27-191, looked up)
chain: APMAEGGGQNHHEVVKFMDVYQRSYCHPIETLVDIFQEYPDEIEYIFKPSCVPLMRCGGCCNDEGLECVPTEESNITMQIMRIKPHQGQHIGEMSFLQHNKCECRPKKDRARQENPCGPCSERRKHLFVQDPQTCKCSCKNTDSRCKARQLELNERTCRCDKPRR
modifications: radio-iodinated (^125I, IODO-BEADS) in the binding and cross-linking experiments; coupled to Sepharose beads in the affinity purification
notes: mature
Consider B1, for which the binding result in test [1] and in test [4] was “binds” throughout. The “231 breast carcinoma cell motility (Boyden chamber motility assay)” value in test [2] is 2 fold. For the same molecule, the Kd in test [3] is approximately 0.32 nM.

B2: Human recombinant VEGF121 (ligand, UniProt P15692-9 27-147, looked up)
chain: APMAEGGGQNHHEVVKFMDVYQRSYCHPIETLVDIFQEYPDEIEYIFKPSCVPLMRCGGCCNDEGLECVPTEESNITMQIMRIKPHQGQHIGEMSFLQHNKCECRPKKDRARQEKCDKPRR
modifications: radio-iodinated (^125I, IODO-BEADS) in the cross-linking experiments
notes: mature
Consider B2, for which the binding result in test [5] is “no binding (tested: 10 ng/ml)”.
